What was measured:
Test in all cases: SPR, antibody captured, C2 as analyte;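 further: biacore SPR at 37 °C, anti-C2 mAbs captured via goat anti-human IgG on CM5 chips, double-referenced sensorgrams fit to a 1:1 kinetic or steady-state model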
[1] = target: T1, human C2 P718A (human, UniProt P06681 21-752)
T1 sequence: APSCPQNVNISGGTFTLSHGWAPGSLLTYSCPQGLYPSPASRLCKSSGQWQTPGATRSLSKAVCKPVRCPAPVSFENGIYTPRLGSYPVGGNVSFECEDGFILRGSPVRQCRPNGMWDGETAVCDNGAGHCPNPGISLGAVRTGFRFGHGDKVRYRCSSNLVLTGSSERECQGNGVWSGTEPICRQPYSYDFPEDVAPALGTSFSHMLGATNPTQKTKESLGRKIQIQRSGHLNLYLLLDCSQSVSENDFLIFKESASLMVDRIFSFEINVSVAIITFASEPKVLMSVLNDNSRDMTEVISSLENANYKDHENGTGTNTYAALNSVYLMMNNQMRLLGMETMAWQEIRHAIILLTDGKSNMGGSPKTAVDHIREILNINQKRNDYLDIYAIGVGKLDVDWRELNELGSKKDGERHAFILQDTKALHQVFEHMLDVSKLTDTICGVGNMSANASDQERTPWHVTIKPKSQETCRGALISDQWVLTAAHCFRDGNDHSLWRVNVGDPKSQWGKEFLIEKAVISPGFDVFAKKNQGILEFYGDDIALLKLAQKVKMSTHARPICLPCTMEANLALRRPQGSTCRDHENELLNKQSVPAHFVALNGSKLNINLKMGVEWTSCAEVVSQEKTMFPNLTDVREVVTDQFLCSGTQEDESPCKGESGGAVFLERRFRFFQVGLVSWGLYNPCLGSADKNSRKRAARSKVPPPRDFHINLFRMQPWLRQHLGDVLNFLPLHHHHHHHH

[2] = target: T2, human C2 I272A (human, UniProt P06681 21-752)
T2 sequence: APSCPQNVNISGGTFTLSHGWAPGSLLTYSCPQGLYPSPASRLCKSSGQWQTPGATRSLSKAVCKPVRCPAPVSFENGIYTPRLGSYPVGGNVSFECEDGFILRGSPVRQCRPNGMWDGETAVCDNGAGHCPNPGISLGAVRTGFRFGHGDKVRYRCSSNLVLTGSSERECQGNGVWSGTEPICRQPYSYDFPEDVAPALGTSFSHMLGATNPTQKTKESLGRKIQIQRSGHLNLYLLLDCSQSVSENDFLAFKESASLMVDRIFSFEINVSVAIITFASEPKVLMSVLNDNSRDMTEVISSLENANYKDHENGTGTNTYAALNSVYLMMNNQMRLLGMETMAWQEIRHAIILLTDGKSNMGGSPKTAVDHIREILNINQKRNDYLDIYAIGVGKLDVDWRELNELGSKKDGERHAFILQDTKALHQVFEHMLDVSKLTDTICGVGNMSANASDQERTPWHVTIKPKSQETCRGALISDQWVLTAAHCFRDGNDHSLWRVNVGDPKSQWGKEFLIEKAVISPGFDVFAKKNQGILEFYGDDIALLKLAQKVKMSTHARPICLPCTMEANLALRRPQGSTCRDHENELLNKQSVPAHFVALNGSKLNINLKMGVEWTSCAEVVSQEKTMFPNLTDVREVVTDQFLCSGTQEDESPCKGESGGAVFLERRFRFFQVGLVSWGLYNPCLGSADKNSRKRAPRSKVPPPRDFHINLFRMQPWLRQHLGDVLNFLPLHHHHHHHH

[3] = target: T3, human C2 T483A (human, UniProt P06681 21-752)
T3 sequence: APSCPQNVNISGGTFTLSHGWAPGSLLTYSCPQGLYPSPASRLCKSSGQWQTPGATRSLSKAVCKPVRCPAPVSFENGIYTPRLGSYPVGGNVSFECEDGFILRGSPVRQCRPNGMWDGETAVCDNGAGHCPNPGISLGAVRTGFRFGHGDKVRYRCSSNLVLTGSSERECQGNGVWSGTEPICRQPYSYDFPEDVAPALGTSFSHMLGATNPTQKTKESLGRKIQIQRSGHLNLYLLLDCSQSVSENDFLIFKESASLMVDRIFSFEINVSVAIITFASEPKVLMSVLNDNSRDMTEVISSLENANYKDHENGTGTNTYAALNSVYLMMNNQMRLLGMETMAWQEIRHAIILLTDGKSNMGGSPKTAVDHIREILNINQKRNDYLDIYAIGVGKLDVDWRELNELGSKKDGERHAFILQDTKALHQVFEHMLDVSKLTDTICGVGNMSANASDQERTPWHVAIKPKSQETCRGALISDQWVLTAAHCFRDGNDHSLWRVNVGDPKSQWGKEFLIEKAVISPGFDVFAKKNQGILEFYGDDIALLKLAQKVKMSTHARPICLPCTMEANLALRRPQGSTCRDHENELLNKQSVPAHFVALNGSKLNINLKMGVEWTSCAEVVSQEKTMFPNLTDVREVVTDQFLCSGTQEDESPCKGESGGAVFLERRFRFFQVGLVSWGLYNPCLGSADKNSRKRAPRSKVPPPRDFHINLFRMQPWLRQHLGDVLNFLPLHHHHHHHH

[4] = target: T4, human C2 P486A (human, UniProt P06681 21-752)
T4 sequence: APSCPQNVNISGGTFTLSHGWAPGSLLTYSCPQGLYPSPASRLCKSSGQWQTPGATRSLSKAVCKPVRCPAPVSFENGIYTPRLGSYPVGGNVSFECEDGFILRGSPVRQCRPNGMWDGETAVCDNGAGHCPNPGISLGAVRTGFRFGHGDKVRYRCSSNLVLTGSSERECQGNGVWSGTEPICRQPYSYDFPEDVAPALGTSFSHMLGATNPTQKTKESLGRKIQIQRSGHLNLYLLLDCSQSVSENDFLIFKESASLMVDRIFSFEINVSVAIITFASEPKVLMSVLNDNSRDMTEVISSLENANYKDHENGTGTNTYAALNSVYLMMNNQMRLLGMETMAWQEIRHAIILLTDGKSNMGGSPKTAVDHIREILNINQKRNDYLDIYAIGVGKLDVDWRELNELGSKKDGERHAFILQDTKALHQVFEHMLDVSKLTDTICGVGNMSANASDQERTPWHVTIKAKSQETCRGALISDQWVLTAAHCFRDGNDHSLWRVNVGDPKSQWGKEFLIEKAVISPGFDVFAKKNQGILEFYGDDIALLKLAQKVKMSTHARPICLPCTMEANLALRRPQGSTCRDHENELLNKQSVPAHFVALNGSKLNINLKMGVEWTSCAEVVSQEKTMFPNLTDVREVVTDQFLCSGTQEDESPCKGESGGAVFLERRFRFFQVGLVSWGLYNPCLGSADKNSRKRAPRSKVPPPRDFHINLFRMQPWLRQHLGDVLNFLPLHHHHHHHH

B1: RF16-226 (antibody, human IgG4 S228P, lambda)
heavy: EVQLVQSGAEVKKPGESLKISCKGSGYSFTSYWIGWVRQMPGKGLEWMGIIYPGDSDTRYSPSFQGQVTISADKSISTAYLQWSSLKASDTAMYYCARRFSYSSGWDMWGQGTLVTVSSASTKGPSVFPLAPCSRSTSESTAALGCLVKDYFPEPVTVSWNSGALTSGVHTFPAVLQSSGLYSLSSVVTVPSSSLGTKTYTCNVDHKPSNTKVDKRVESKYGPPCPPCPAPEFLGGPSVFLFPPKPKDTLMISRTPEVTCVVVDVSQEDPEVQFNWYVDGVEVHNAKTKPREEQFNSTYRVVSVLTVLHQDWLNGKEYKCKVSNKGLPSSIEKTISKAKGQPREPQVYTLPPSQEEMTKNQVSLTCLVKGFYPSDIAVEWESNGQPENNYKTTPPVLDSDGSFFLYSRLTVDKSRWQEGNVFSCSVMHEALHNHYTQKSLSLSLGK
light: SYELTQPPSVSVSPGQTARITCSGDALTSKYVAWYQQKSGLAPLLVIYEDTRRPSGIPAKFSGSSSGSVATLTISGAHGDDEADYYCYSTDASGHQRVFGGGTKLTVLSQPKAAPSVTLFPPSSEELQANKATLVCLISDFYPGAVTVAWKADGSPVKAGVETTKPSKQSNNKYAASSYLSLTPEQWKSHRSYSCQVTHEGSTVEKTVAPTECS
notes: pH-dependent anti-C2 antibody from a phage display library; also called WT
Kd [1]: 15.2 nM
Kd [2]: 10.4 nM
Kd [3]: 5.5 nM
Kd [4]: 11.1 nM
